Experiment [1] has as its target T1, human dimeric EGFR (EGFR.mFc) (human).
T1 construct: Soluble dimeric EGFR construct
As to the kind of experiment: SPR 37C, mAb captured by anti-human Fc, EGFR.mFc analyte. The protocol: (§1) Different concentrations of human monomeric (EGFR.mmh; SEQ ID NO:386) and dimeric (EGFR.mFc; SEQ ID NO:387) proteins were injected over the anti-EGFR monoclonal antibody captured surface at a flow rate of 50 μI/min. Antibody-antigen association was monitored for 4-5 minutes while dissociation of antigen from the captured monoclonal antibody surface was monitored for 10 min. Kinetic association (kₐ) and dissociation (kd) rate constants were determined by processing and fitting the data to a 1:1 binding model using Scrubber 2.0 curve fitting software.

Experiment [2] addresses T2, EGFR on A431 epidermoid carcinoma cells (human, UniProt P00533 25-1210). Description: cell-based or functional assay.
Experiment [3] addresses T3, human monomeric EGFR (EGFR.mmh) (human, UniProt P00533 25-647).
T3 construct: Soluble monomeric EGFR construct
Description: SPR 37C, mAb captured by anti-human Fc, EGFR.mmh analyte. The protocol: as §1

Experiment [4] deals with T2, EGFR on A431 epidermoid carcinoma cells. As to the kind of experiment: cell-based or functional assay. This is another data set of the same source.

B1: H1H147P (antibody, human IgG1, V domains shown)
VH: EVQLVESGPGLVQPSQTLSLTCTVSGGSINSGDFYWSWIRQHPGKGLEWIGHIYYSGITYYSPSLKSRLTISVDTSKNQFSLKLSSVTAADTAVYYCARKRVTGEVDYWGQGTLVTVSS
VL: DIQMTQSPSSLSASVGDRITITCQANQDINNYLNWYQQKPGKAPKLLISDASNLETGVPSRFSGSGSGTDFTFTISSLQPEDIATYYCQQYDNLPPTFGQGTRLEIKR
notes: Human IgG1 Fc (H1H)
In experiment [1], B1 displayed a Kd of 0.0664 nM, an off-rate constant (koff) of 1.26e-05 s⁻¹, a kon of 190000 M⁻¹ s⁻¹ and a t1/2 of 15.2 h. Further, the “Maximum Cell Killing (%)” value in experiment [2] was determined as 13%. In experiment [3], this molecule registered a Kd of 5.76 nM, a koff of 0.000376 s⁻¹, a kon of 65400 M⁻¹ s⁻¹ and a t1/2 of 0.517 h. In addition, the “IC50 of A431 Proliferation” value in experiment [4] turned out to be 9.77e-11 Molar.

B2: H1H103N (antibody, human IgG1, V domains shown)
VH: EVQLVESGGGLVQPGGSLRLSCAASGFTFSSYDMHWVRQTTGKGLEWVSGIGTAGDTYYPGSVKGRFTISREDAKNSLYLQMNSLRAGDTAVYYCARVGYDWNFVAFDYWGQGTLVTVSS
VL: DIVMTQSPLSLPVTPGEPASISCRSSQSLLHSNGYNYLDWYLQKPGQSPQLLIHLVSIRASGVPDRFSGSGSGTDFTLKISRVEAEDVGIYYCMQALQTPWTFGQGTKVEIK
notes: Tested in human IgG1 Fc format (H1H); also called H1M103N
In experiment [1], B2 showed a Kd of 0.109 nM, a koff of 4.19e-05 s⁻¹, a kon of 383000 M⁻¹ s⁻¹ and a t1/2 of 4.6 h. Moreover, in experiment [2], the “ADCC EC50” value turned out to be 7.25e-13 Molar and the “Maximum Cell Killing (%)” value stood at 17%. In experiment [3], this molecule displayed a Kd of 13.9 nM, an off-rate constant (koff) of 0.00139 s⁻¹, an association rate constant (kon) of 100000 M⁻¹ s⁻¹ and a t1/2 of 0.133 h. In experiment [4], the “IC50 of A431 Proliferation” value was determined as 3.89e-09 Molar.

B3: H1H102N (antibody, human IgG1, V domains shown)
VH: QVQLQESGPGLVQPSQTLSLTCTVSGGSVSSGDYYWSWIRQHPGKGLEWIGHIYYSGITYYNPSLESRVTITLDTSKNQFSLNLRSVTAADTAVHYCARTAIIGTMDNWGRGTLVTVSS
VL: EIVMTQSPATLSVSPGERATLSCRASQSVSSNLAWYQQKPGQAPRLLIYDASTRATGFPARFSGSGSGTEFTLTISSLQSEDFAVYYCQQYNTWWTFGQGTKVEIK
notes: Tested in human IgG1 Fc format (H1H); also called H1M102N
In experiment [1], B3 yielded a Kd of 0.0651 nM, a koff of 5.62e-05 s⁻¹, a kon of 863000 M⁻¹ s⁻¹ and a t1/2 of 3.43 h. In experiment [2], the “ADCC EC50” value was determined as 4.39e-13 Molar and the “Maximum Cell Killing (%)” value was determined as 48%. In experiment [3], this molecule had a Kd of 5.67 nM, a koff of 0.000943 s⁻¹, a kon of 166000 M⁻¹ s⁻¹ and a t1/2 of 0.2 h. Besides, the “IC50 of A431 Proliferation” value in experiment [4] came out at 2.88e-10 Molar.

B4: H1H116N (antibody, human IgG1, V domains shown)
VH: QVQLQESGPGLVKPSQTLSLTCTVSGGSVSSGDYYWSWIRQHPGKGLDWIGHIYYSGSTYYNPSLKSRVTISLDTSKNQFSLKLNSVTAADTAVYYCARTAITGTMDYWGQGTLVTVSS
VL: EIVMTQSPATLSVSAGERATLSCRASQSVSSNLAWFQQKPGQAPRLLIYDASTRATGIPARFSGSGSGTEFTLIISSLQSEDFALYYCQQYNSWWTFGQGTKVEIK
notes: Tested in human IgG1 Fc format (H1H); also called H1M116N
In experiment [1], B4 had a Kd of 0.0203 nM, a koff of 3.16e-05 s⁻¹, a kon of 1.55e+06 M⁻¹ s⁻¹ and a t1/2 of 6.1 h. In experiment [2], the “ADCC EC50” value stood at 2.51e-13 Molar and the “Maximum Cell Killing (%)” value worked out at 29%. In addition, in experiment [3], the Kd worked out at 5.27 nM, the koff was found to be 0.00284 s⁻¹, the on-rate constant (kon) was determined as 539000 M⁻¹ s⁻¹ and the t1/2 was 0.0667 h. In addition, the “IC50 of A431 Proliferation” value in experiment [4] amounted to 2.24e-10 Molar.

B5: H1H141P (antibody, human IgG1, V domains shown)
VH: QVQLQESGPGLVKPSQTLSLTCTVSGGSISSGDYYWNWIRQYPGKGLELIGYIYYSGITYYNPSLKSRLTISLDTSKNQFSLKLSSVTAADTAVYYCARDRVELRAFDIWGQGTMVTVSS
VL: DIQMTQSPSSLSASVGDRVTITCQASQDISNYLNWYQQKPGKAPKLLINDASNLETGVPSRFSGSGSGTDFTFTISSLQPEDIATYYCQHYDSLPLTFGQGTRLEIK
notes: Human IgG1 Fc (H1H)
In experiment [1], B5 registered a dissociation constant (Kd) of 0.00831 nM, a koff of 7.51e-06 s⁻¹, a kon of 903000 M⁻¹ s⁻¹ and a t1/2 of 25.6 h. Moreover, in experiment [2], the “ADCC EC50” value was determined as 2.78e-12 Molar and the “Maximum Cell Killing (%)” value was 41%. Moreover, in experiment [3], the Kd amounted to 1.02 nM, the koff was 0.000405 s⁻¹, the kon is 396000 M⁻¹ s⁻¹ and the t1/2 turned out to be 0.483 h. The “IC50 of A431 Proliferation” value in experiment [4] was determined as 1.41e-10 Molar.

B6: H1H144P (antibody, human IgG1, V domains shown)
VH: QVQLQESGPGLVMPSQTLSLTCTVSGGSINSGDYYWNWIRQHPGKGLEWIGYIYYSEISYHNPSLKSRVTTSIDTSTNQFSLKLSSVTAADTAVYYCARDRVELRAFDIWGQGTMVTVSS
VL: DIQMTQSPSSLSASVGDRVTITCQASQDISNYLNWYQQKPGKAPKLLIYDASNLETGVPSRFSGSGSGTDFTFTISSLQPEDIATYYCQHYDSLPLTFGQGTRLEIK
notes: Human IgG1 Fc (H1H)
Take B6: in experiment [1], binding was characterised by a dissociation constant (Kd) of 0.0217 nM, the koff was 1.94e-05 s⁻¹, the kon was found to be 894000 M⁻¹ s⁻¹ and the t1/2 was found to be 9.93 h. In addition, in experiment [2], the “ADCC EC50” value turned out to be 4.57e-11 Molar and the “Maximum Cell Killing (%)” value amounted to 43%. For the same molecule, in experiment [3], the dissociation constant (Kd) was 5.25 nM, the off-rate constant (koff) came to 0.000967 s⁻¹, the kon was found to be 184000 M⁻¹ s⁻¹ and the t1/2 came out at 0.2 h. In addition, the “IC50 of A431 Proliferation” value in experiment [4] is 1.39e-11 Molar.

B7: H1H134P (antibody, human IgG1, V domains shown)
VH: EVQLVESGGGLVQPGGSLRLSCAASGFTFDDFAIHWVRQTPGRGLEWVSGLSWNSAYIAYADSVKGRFTISRDNAKDSLYLQMNSLRPEDTALYYCVKDTDIHLWFLFDFWGQGTLVTVSS
VL: not shown
notes: Human IgG1 Fc (H1H)
B7: in experiment [1], the affinity, expressed as Kd, was 0.00799 nM; the koff came out at 2.47e-05 s⁻¹; the kon amounted to 3.09e+06 M⁻¹ s⁻¹; the t1/2 is 7.8 h. In experiment [2], the “ADCC EC50” value amounted to 4.61e-11 Molar and the “Maximum Cell Killing (%)” value amounted to 33%. Also, in experiment [3], the dissociation constant (Kd) was found to be 0.848 nM, the koff was 0.000789 s⁻¹, the kon worked out at 930000 M⁻¹ s⁻¹ and the t1/2 amounted to 0.25 h. In experiment [4], the “IC50 of A431 Proliferation” value was determined as 1.84e-09 Molar.

Usually Kd stands for the free concentration of one partner at which half of the binding sites on the other are occupied at equilibrium, for simple one-to-one binding. One may read the koff as a measure of how fast the partners let go of each other. A word on the kon: it is the rate constant with which the complex forms. A higher kon goes with faster complex formation.

These data come from patent publication US20180036405A1 (Regeneron, published 2018).
